Test results: paper doi:10.1101/2025.07.27.667015

Key:
[1] = target: Methionine γ-lyase from Yarrowia lipolytica (yMGL) (Yarrowia lipolytica); assay: crystal structure
[2] = target: Methionine γ-lyase from Yarrowia lipolytica (yMGL) (Yarrowia lipolytica); assay: SEC + other: dynamic light scattering
[3] = target: yMGL-ΔCTD (yMGL with the C-terminal residues 253-380 deleted) (Yarrowia lipolytica); assay: SEC + other: dynamic light scattering

| stoichiometry N [1] | stoichiometry N [2] | stoichiometry N [3] | Substance |
| --- | --- | --- | --- |
| 2 | 4 | – | Methionine γ-lyase from Yarrowia lipolytica (yMGL) (enzyme) |
| – | – | 6 | yMGL-ΔCTD (yMGL with the C-terminal residues 253-380 deleted) (domain or fragment) |
